Measured values: US20210171613A1 (NATIONAL RESEARCH COUNCIL OF CANADA, published 2021)
Substitutions are numbered along the chain they refer to. In names and notes the source's numbering stands.

B1: A26.8 VHH mutant D107N (VHH, not shown: small tags and cut ends)
VHH: QVKLEESGGGLVQAGGSLRLSCAASERTFSRYPVAWFRQAPGAEREFVAVISSTGTSTYYADSVKGRFTISRDNAKVTVYLQMNNLKREDTAVYFCAVNSQRTRLQNPNEYDYWGQGTQVTVSS
B2: A26.8 VHH mutant D107R (VHH, not shown: small tags and cut ends)
VHH: B1 VHH with N107R
B3: A26.8 VHH mutant D107Y (VHH, not shown: small tags and cut ends)
VHH: B1 VHH with N107Y
B4: A26.8 VHH mutant E110Q (VHH, not shown: small tags and cut ends)
VHH: B1 VHH with N107D, E110Q
B5: A26.8 VHH mutant R104W (VHH, not shown: small tags and cut ends)
VHH: B1 VHH with R104W, N107D
B6: A26.8 VHH mutant T54W (VHH, not shown: small tags and cut ends)
VHH: B1 VHH with T54W, N107D
B7: A26.8 VHH mutant T54Y (VHH, not shown: small tags and cut ends)
VHH: B1 VHH with T54Y, N107D
B8: A26.8-N109R (VHH, not shown: small tags and cut ends)
VHH: B1 VHH with N107D, N109R
B9: A26.8-Q101K (VHH, not shown: small tags and cut ends)
VHH: B1 VHH with Q101K, N107D
B10: A26.8-Q101K,T103K (VHH, not shown: small tags and cut ends)
VHH: B1 VHH with Q101K, T103K, N107D
B11: A26.8-Q101K,T103M (VHH, not shown: small tags and cut ends)
VHH: B1 VHH with Q101K, T103M, N107D
B12: A26.8-Q101K,T103R (VHH, not shown: small tags and cut ends)
VHH: B1 VHH with Q101K, T103R, N107D
B13: A26.8-T54R (VHH, not shown: small tags and cut ends)
VHH: B1 VHH with T54R, N107D
B14: A26.8-T56I (VHH, not shown: small tags and cut ends)
VHH: B1 VHH with T56I, N107D
B15: A26.8-T56R (VHH, not shown: small tags and cut ends)
VHH: B1 VHH with T56R, N107D
B16: A26.8-T56R, Q101K (VHH, not shown: small tags and cut ends)
VHH: B1 VHH with T56R, Q101K, N107D
B17: A26.8-T56R, Q101K, T103K (VHH, not shown: small tags and cut ends)
VHH: B1 VHH with T56R, Q101K, T103K, N107D
B18: A26.8-T56R, Q101K, T103M (VHH, not shown: small tags and cut ends)
VHH: B1 VHH with T56R, Q101K, T103M, N107D
B19: A26.8-T56R, T103K (VHH, not shown: small tags and cut ends)
VHH: B1 VHH with T56R, T103K, N107D
B20: A26.8-T56R, T103M (VHH, not shown: small tags and cut ends)
VHH: B1 VHH with T56R, T103M, N107D
B21: A26.8-T58K (VHH, not shown: small tags and cut ends)
VHH: B1 VHH with T58K, N107D
B22: A26.8-T103K (VHH, not shown: small tags and cut ends)
VHH: B1 VHH with T103K, N107D
B23: A26.8-T103M (VHH, not shown: small tags and cut ends)
VHH: B1 VHH with T103M, N107D
B24: A26.8-T103R (VHH, not shown: small tags and cut ends)
VHH: B1 VHH with T103R, N107D
B25: A26.8-T103W (VHH, not shown: small tags and cut ends)
VHH: B1 VHH with T103W, N107D

target: T1, Clostridium difficile toxin A (TcdA) (Clostridium difficile, UniProt P16154 1-2710); assay: SPR (Biacore 3000), VHH over immobilized TcdA, 1:1 fit
T1 construct: mature; also called full-length TcdA
T1 sequence (P16154 whole entry): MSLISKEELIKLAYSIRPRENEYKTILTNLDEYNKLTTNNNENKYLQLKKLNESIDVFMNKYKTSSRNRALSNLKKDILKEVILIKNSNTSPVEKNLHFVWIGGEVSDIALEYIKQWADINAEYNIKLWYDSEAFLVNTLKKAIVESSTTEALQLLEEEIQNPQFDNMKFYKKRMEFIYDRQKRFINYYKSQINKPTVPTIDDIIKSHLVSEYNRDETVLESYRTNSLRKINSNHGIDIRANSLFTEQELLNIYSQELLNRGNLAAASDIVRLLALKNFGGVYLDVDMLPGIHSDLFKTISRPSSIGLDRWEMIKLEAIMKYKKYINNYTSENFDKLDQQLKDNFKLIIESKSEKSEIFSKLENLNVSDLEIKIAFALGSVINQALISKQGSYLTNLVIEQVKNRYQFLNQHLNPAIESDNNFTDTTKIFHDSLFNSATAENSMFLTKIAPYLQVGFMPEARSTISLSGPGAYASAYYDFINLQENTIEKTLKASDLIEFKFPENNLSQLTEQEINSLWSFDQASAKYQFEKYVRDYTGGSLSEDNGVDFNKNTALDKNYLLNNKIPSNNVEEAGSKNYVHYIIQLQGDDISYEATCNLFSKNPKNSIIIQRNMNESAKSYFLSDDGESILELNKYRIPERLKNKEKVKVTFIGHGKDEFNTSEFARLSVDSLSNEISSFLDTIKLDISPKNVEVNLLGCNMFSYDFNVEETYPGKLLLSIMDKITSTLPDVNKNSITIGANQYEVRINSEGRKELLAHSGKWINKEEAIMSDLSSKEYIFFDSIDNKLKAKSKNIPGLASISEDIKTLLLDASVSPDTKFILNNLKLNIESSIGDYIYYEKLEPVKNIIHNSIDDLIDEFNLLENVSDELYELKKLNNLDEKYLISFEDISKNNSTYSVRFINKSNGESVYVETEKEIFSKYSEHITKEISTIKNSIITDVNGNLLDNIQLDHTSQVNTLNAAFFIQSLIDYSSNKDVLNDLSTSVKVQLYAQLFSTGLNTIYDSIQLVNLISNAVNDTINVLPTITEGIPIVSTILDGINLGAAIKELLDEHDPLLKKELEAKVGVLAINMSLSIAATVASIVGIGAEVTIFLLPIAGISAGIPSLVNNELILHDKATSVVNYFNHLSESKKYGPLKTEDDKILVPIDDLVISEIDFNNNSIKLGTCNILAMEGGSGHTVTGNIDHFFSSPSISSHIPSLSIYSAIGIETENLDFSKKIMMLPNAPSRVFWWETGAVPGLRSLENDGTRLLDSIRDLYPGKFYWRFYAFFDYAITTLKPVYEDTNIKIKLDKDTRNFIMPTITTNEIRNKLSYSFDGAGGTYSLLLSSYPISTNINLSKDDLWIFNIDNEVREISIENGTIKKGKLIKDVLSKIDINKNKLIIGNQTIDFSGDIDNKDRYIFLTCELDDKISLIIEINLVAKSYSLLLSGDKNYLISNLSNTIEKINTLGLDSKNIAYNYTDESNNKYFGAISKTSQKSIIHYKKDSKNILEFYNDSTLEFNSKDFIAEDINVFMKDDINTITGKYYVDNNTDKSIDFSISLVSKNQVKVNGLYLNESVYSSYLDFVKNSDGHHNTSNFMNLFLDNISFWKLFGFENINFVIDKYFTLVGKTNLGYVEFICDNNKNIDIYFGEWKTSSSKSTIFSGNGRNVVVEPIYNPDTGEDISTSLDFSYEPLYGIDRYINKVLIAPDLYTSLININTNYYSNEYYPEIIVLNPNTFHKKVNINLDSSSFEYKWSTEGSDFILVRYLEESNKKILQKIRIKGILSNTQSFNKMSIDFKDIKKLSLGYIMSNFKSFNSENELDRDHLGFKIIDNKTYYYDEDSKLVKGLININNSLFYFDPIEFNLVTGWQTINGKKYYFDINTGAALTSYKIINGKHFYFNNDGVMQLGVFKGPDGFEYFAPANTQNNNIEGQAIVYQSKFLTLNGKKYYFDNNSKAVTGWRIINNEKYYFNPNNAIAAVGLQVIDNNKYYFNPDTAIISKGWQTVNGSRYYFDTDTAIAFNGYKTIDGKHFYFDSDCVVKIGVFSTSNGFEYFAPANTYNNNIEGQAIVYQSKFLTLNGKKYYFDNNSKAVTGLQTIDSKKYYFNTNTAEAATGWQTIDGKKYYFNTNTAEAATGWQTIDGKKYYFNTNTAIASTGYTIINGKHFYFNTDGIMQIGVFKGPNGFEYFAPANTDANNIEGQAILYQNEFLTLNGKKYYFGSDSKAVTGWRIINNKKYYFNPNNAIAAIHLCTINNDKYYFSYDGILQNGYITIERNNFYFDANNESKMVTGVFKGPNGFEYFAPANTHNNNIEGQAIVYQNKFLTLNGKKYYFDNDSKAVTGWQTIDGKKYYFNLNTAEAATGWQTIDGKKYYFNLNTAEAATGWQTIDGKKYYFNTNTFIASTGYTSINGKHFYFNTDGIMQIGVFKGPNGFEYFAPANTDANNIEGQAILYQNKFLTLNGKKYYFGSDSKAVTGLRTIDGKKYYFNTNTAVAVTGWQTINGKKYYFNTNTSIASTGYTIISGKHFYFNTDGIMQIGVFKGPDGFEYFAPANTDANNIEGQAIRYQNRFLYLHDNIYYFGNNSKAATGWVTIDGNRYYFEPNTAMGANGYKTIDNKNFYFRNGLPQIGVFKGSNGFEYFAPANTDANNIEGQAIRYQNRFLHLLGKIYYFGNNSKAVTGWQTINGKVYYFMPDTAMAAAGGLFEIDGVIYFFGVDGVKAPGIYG
Description: (§1) Before surface plasmon resonance (SPR) binding experiments, IMAC-purified VHHs were subjected to de-salting and further purification by size-exclusion chromatography (SEC). Approximately 500 μg of each VHH was injected over a Superdex 75 Increase 10/300 GL SEC column (GE Healthcare) in Biacore running buffer HBS-EP (10 mM HEPES pH 7.4, 150 mM NaCl, 3 mM EDTA, 0.005% (v/v) P20; GE Healthcare) under the control of an ÄKTA FPLC at 0.8 mL/min. Monomeric VHH fractions were collected and analyzed for binding to TcdA using a Biacore 3000 SPR instrument (GE Healthcare). Approximately 4,500 resonance units (RUs) of TcdA (List Biological Laboratories, Campbell, Calif.) were immobilized on a CM5 sensor chip (GE Healthcare) using the conditions previously described (Hussack et al, 2011). HBS-EP running buffer was used for all binding studies and regeneration of TcdA surfaces. Next, various dilution ranges of VHHs (as low as 10 nM-0.5 nM to as high as 5 μM-50 nM) were injected over immobilized TcdA at a flow rate of 40 μL/min with 120 s contact time and 600 s dissociation. Reference-subtracted sensorgrams were analyzed with BIAevaluation software (GE Healthcare) and fit to a 1:1 binding model. In cases where rapid kₒₙ and koff rate constants were observed, equilibrium dissociation constants (KDs) were determined by steady-state analysis.

Binder | Kd [nM] | koff [s⁻¹] | kon [M⁻¹ s⁻¹]
B1 | 21.3 | 0.0402 | 1.92e+06
B2 | 19 | 0.0259 | 1.39e+06
B3 | 44 | 0.0711 | 1.62e+06
B4 | 33.6 | 0.0699 | 2.08e+06
B5 | 165 | 0.0548 | 330000
B6 | 35 | 0.0561 | 1.61e+06
B7 | 38.9 | 0.0694 | 1.81e+06
B8 | 13.9 | 0.0268 | 1.95e+06
B9 | 7.63 | 0.0198 | 2.7e+06
B10 | 8.21 | 0.0396 | 4.96e+06
B11 | 8.02 | 0.0265 | 3.31e+06
B12 | 4.2 | 0.0226 | 5.45e+06
B13 | 13.2 | 0.044 | 3.55e+06
B14 | 13.6 | 0.0262 | 1.94e+06
B15 | 6.16 | 0.0269 | 4.75e+06
B16 | 4.13 | 0.0497 | 1.24e+07
B17 | 3.19 | 0.0467 | 1.47e+07
B18 | 2.87 | 0.0296 | 1.04e+07
B19 | 3.44 | 0.0291 | 8.61e+06
B20 | 4.84 | 0.0304 | 6.42e+06
B21 | 13.5 | 0.0327 | 2.47e+06
B22 | 8.29 | 0.0199 | 2.47e+06
B23 | 13.7 | 0.0237 | 1.77e+06
B24 | 5.32 | 0.014 | 2.7e+06
B25 | 16.3 | 0.0361 | 2.39e+06

target: T1, Clostridium difficile toxin A (TcdA); assay: SPR (Biacore 3000), VHH over immobilized TcdA; binding free energy difference relative to parent VHH
Description: as §1

Binder | ΔΔG [kcal/mol]
B1 | 0.08
B2 | 0.01
B3 | 0.5
B4 | 0.34
B5 | 1.27
B6 | 0.37
B7 | 0.43
B8 | -0.17
B9 | -0.52
B10 | -0.48
B11 | -0.49
B12 | -0.87
B13 | -0.2
B14 | -0.19
B15 | -0.65
B16 | -0.88
B17 | -1.03
B18 | -1.1
B19 | -0.99
B20 | -0.79
B21 | -0.19
B22 | -0.48
B23 | -0.18
B24 | -0.73
B25 | -0.08

target: T1, Clostridium difficile toxin A (TcdA); assay: SPR (Biacore 3000), VHH over immobilized TcdA; ratio of parent KD to mutant KD
Description: as §1

Binder | KD^WT/KD
B1 | 0.9
B2 | 1
B3 | 0.4
B4 | 0.6
B5 | 0.1
B6 | 0.5
B7 | 0.5
B8 | 1.3
B9 | 2.5
B10 | 2.3
B11 | 2.3
B12 | 4.5
B13 | 1.4
B14 | 1.4
B15 | 3
B16 | 4.5
B17 | 5.9
B18 | 6.5
B19 | 5.4
B20 | 3.9
B21 | 1.4
B22 | 2.3
B23 | 1.4
B24 | 3.5
B25 | 1.1

target: T1, Clostridium difficile toxin A (TcdA); assay: SPR on immobilized TcdA
Description: as §1
The location of these mutations relative to the antigen epitope is illustrated in FIG. 2C.

Binder | fold decrease in affinity relative to parent A26.8 VHH [fold] | fold improvement in KD relative to parent A26.8 VHH [fold] | fold improvement in binding affinity relative to parent A26.8 VHH [fold] | fold improvement in kon relative to parent [fold] | fold improvement in koff relative to parent [fold]
B1 | ≤ 2.5 | – | – | – | –
B2 | ≤ 2.5 | – | – | – | –
B3 | ≤ 2.5 | – | – | – | –
B4 | ≤ 2.5 | – | – | – | –
B5 | ~10 | – | – | – | –
B9 | – | > 2 | > 2 | – | –
B15 | – | > 2 | ~3 | ~2.5 | –
B22 | – | > 2 | > 2 | – | –
B24 | – | > 2 | ~3 | – | ~2.5
